Measurements reported in paper PMC9170159 (Proceedings of the National Academy of Sciences of the …, 2022).

B1: NCI-CoV-2F7 VHH-hFc fusion protein (Fc fusion)
VHH: QVKLEESGGGSVQSGGSLRLSCTVSRDTNTNINRCMGWFRQAPGKGLETVATINRDGTNTYYTDAVKGRFTISQDNVKNTVYLQMNNLTPEDTGTYICNAMGRGSGSRCDNWDPNYWGQGTQVTVSS
notes: also called 2F7 VHH-Fc; source: Expi293 cells, transfected, purified (protein A column)
B2: NCI-CoV-2F7 monomeric VHH (VHH-His) (VHH)
VHH: B1 VHH
B3: NCI-CoV-8A2 monomeric VHH (VHH-His) (VHH)
VHH: AVQLVDSGGGSVQAGGSLRLSCAASGYTYSICTMGWYRQAPGEGLEWVSGINADGSNTHYTDSVKGRFTISRDNAKKTLYLQMNSLKPEDTAIYYCAAHGTYDKYAPCGGFAGTYTYWGQGTQVTVSS
B4: NCI-CoV-7A3 monomeric VHH (VHH-His) (VHH)
VHH: QVQLVESGGGSVQPGGSLRLSCVVSGYTSSSRYMGWFRQVPGKGLEWVSGIKRDGTNTYYADSVKGRFTISQDNAKNTVYLQMNSLKPEDTAMYYCAAGSWYNQWGYSMDYWGKGTQVTVSS

What was measured:
[1] = molecular target: SARS-CoV-2 (Wuhan-Hu-1) spike receptor-binding domain, His-tagged (SARS-CoV-2, UniProt P0DTC2 319-541); assay: BLI; settings: both partners purified
[2] = molecular target: SARS-CoV-2 spike receptor-binding domain (RBD), Wuhan-Hu-1, His-tagged (SARS-CoV-2 (Wuhan-Hu-1), UniProt P0DTC2); assay: BLI; settings: both partners purified

Binder | Kd [1] | Kd [2]
B1 | 0.77 nM | 
B2 |  | 0.75 nM
B3 |  | 0.8 nM
B4 |  | 0.96 nM
